The text below walks through data of patent publication US20230151082A1.

The target in assay [1] is mesothelin present on the cell membrane of mesothelin-expressing cancer cell lines (AsPC-1; OVCAR-3; NCI-H2052) (human) (UniProt Q13421). Nature of the assay: flow cytometry, phage clone on AsPC-1 cells, anti-M13-FITC.
Assay [2] shares this target. Nature of the assay: flow cytometry, phage clone on AsPC-1 cells against control K562 cells.
Assay [3] addresses human mesothelin protein (MSLN, Acro Biosystems), conjugated to a histidine tag (human) (UniProt Q13421). Put plainly: ELISA, purified scFv on coated human mesothelin protein (1 ug/mL), anti-StrepMAB HRP.

B1: MSLN37 phage clone (scFv displayed on phage, KBIO human synthetic scFv phage display library KscFv-I) (scFv, V domains shown)
VH: EVQLVESGGGLVQPGGSLRLSCAASGFTFSSYAMHWVRQAPGKGLEWVSGISGSGGTTYYADSVKGRFTISRDNSKNTLYLQMNSLRAEDTAVYYCAKEVEGQSQEYFDIWGQGTLVTVSS
VL: DIQMTQSPSSLSASVGDRVTITCRASQSIANYLNWYQQKPGKAPKLLIYAASNLQSGVPSRFSGSGSGTDFTLTISSLQPEDFATYYCQQSYSFPYTFGQGTKVEIK
Consider B1, for which the figures for the relative peak shift value in assay [1] and in assay [2] were more than 5% and 5.9%, respectively.

B2: MSLN34 phage clone (scFv displayed on phage, KBIO human synthetic scFv phage display library KscFv-I) (scFv, not shown: large carriers; small tags and cut ends)
scFv: EVQLVESGGGLVQPGGSLRLSCAASGFTFSDYGMHWVRQAPGKGLEWVSSIYGSGGHTGYADSVKGRFTISRDNSKNTLYLQMNSLRAEDTAVYYCAKQHAYRYSYAFDVWGQGTLVTVSSGGGGSGGGGSGGGGSDIQMTQSPSSLSASVGDRVTITCRASQSISNWLNWYQQKPGKAPKLLIYATSSLQSGVPSRFSGSGSGTDFTLTISSLQPEDFATYYCQQSYSFPFTFGQGTKVEIK
modifications: displayed on M13 phage
Take B2: the relative peak shift value is more than 5% in assay [1] and 16.2% in assay [2].

B3: anti-MSLN-scFv antibody MSLN34 (purified scFv from E. coli periplasm) (scFv, not shown: small tags and cut ends)
scFv: B2 scFv
Take B3: the EC50 in assay [3] is 83 nM.
